Test results published in US20100093028A1 (DANISCO US, published 2010).

Key:
[1] = molecular target: T1, vascular endothelial growth factor (UniProt P15692-4 27-191, limits assumed, biotin label (Example 5), site not stated); assay: BioVeris ECL competition with a labeled competitor; legend: +++ = IC50 about 2-10 µM
T1 construct: also called VEGF; VegF
Procedure: (§1) The resulting vectors were used to transform B. subtilis BG6006 host cells. Cultures were grown in 500 ml of MBD medium and the BBI species were purified essentially as described above and by Vogtentanz et al., 2007 (Protein Expr Purif 55:40-52 [2007]). BioVeris binding assays were performed essentially as outlined in Example 5 and by the manufacturer. Binding of the modified variant BBIs to their respective target proteins was measured using a BioVeris® binding assay, which is a competition assay that determines the binding of the modified variant BBIs to its target protein (e.g. VEGF, FGF5, TGFβ and TNFα) in the presence or absence of a labeled competitor. The competitor can be a labeled monoclonal antibody raised against the target protein or a labeled native receptor of the target protein. The electrochemiluminesent binding assays were performed essentially as described in Example 5. The apparent IC50s were determined from binding data by determining the concentration of the BBI species needed to reduce the BioVeris signal by one half. BBI scaffolds without the target binding peptide in the chymotrypsin inhibitory loop were used as negative controls.

[2] = molecular target: T2, Transforming growth factor β1 (UniProt P01137 279-390); assay: BioVeris ECL competition with a labeled competitor; legend: ++ = IC50 about 10-50 µM
T2 construct: also called TGFβ1; TGFβ
Procedure: as §1

[3] = molecular target: T3, fibroblast growth factor 5 (UniProt P12034 21-268, limits assumed); assay: BioVeris ECL competition; wild-type negative control for FGF-5 binding
T3 construct: also called FGF-5; FGF5
T3 sequence (looked up): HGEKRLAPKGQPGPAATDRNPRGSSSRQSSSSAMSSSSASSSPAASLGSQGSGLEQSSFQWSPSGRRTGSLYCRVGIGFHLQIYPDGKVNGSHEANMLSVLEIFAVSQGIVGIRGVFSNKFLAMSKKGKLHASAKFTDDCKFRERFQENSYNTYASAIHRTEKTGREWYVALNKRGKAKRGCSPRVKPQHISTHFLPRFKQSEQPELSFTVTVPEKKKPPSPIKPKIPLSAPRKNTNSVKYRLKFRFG

[4] = molecular target: T1, vascular endothelial growth factor; assay: BioVeris ECL competition; wild-type negative control for VEGF binding
Tumor necrosis factor α [5] = molecular target: T4, Tumor necrosis factor α (UniProt P01375 77-233); assay: BioVeris ECL competition with a labeled competitor; legend: ++ = IC50 about 10-50 µM
T4 construct: also called TNFα; TNF
Procedure: as §1

Tumor necrosis factor α [6] = molecular target: T4, Tumor necrosis factor α; assay: BioVeris ECL competition with a labeled competitor; legend: + = IC50 about 50-250 µM
Procedure: as §1

[7] = molecular target: T1, vascular endothelial growth factor; assay: BioVeris ECL competition with a labeled competitor; legend: ++ = IC50 about 10-50 µM
Procedure: as §1

Tumor necrosis factor α [8] = molecular target: T4, Tumor necrosis factor α; assay: BioVeris ECL competition; negative control for TNFα binding
[9] = molecular target: T2, Transforming growth factor β1; assay: BioVeris ECL competition; negative control for TGFβ binding
[10] = molecular target: T3, fibroblast growth factor 5; assay: BioVeris ECL competition with a labeled competitor; legend: ++ = IC50 about 10-50 µM
Procedure: as §1

T1 sequence (P15692 other isoform, or with tags, fused parts or gaps limits assumed): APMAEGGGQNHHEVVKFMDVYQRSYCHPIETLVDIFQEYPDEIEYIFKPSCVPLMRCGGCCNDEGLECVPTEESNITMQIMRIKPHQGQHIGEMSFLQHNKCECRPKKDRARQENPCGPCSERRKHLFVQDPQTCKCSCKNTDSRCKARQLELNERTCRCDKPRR
T2 sequence (P01137 279-390 limits assumed): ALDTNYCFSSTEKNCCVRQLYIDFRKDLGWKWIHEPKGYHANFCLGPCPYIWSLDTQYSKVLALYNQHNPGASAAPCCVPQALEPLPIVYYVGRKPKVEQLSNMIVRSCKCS
T4 sequence (P01375 77-233 limits assumed): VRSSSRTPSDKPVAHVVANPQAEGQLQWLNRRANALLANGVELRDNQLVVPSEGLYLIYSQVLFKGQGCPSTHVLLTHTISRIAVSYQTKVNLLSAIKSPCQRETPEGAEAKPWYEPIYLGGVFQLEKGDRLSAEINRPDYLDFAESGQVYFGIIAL

B1: BBIt-VEGKD-A13I-S25K-L29P-V52K (designed binder)
chain: DPDDESSKPCCDQCICTKSNPPQCRCKDMRPNSCHSACKSCICKYDLYWWCFCKDITDFCYEPCKPSE
notes: also called VegKD-Q
[1]
  IC50: 2 to 10 µM

B2: PEN3-Q-BBIt-TGFβ1 (designed binder)
chain: DPDDESSKPCCDQCICTKSNPPQCRCSDMRPNSCHSACKSCACPENINVLPCTCADITDFCYEPCKPSE
notes: also called BBIt-PEN3-Q-A13I-L29P-F50T-V52A
[2]
  IC50: 10 to 50 µM

B3: BBtc-AV (designed binder)
chain: DPSSKWEACCDRCACTKSIPPQCHCADIRLNSCHSACESCACYNLYGWTCRCFDITDFCYKPCSG
notes: also called BBItc-AV
[1]
  IC50: 2 to 10 µM

B4: BBIt-AV (designed binder)
chain: DDESSKPCCDQCACTKSNPPQCRCSDMRLNSCHSACKSCACYNLYGWTCFCVDITDFCYEPCKPSE
notes: BBI-AV without its 5 C-terminal amino acids; also called truncated BBI-AV; unmodified BBIt-AV
[1]
  IC50: 2 to 10 µM

B5: wild-type soybean Bowman-Birk protease inhibitor (other)
chain: DDESSKPCCDQCACTKSNPPQCRCSDMRLNSCHSACKSCICALSYPAQCFCVDITDFCYEPCKPSEDDKEN
notes: Negative control with the native chymotrypsin loop ALSYPAQ; also called sBBI; BBI
[3]
  IC50: > 250 µM
[4]
  IC50: > 250 µM

B6: BBIt-TNFα-T1-A13I-S25R-M27A-L29P-S31A-F50K-V52T (designed binder)
chain: DPDDESSKPCCDQCICTKSNPPQCRCRDARPNACHSACKSCACRYWQDIPCKCTDITDFCYEPCKPSE
notes: also called BBIt-TNF-T1
Tumor necrosis factor α [5]
  IC50: 10 to 50 µM

B7: BBIt-TNFα-T3-A13I-S25R-M27A-L29P-S31A-F50K-V52T (designed binder)
chain: DPDDESSKPCCDQCICTKSNPPQCRCRDARPNACHSACKSCACDMIMVSICKCTDITDFCYEPCKPSE
notes: also called BBIt-TNF-T3
Tumor necrosis factor α [6]
  IC50: 50 to 250 µM

B8: BBIt-VEGF-V5-A13I-S25R-M27A-L29P-S31A-F50K-V52T (designed binder)
chain: DPDDESSKPCCDQCICTKSNPPQCRCRDARPNACHSACKSCACKPSSASSCKCTDITDFCYEPCKPSE
notes: also called BBIt-AV-V5
[7]
  IC50: 10 to 50 µM

B9: BBIt-TNFα-T2-A13I-S25R-M27A-L29P-S31A-F50K-V52T (designed binder)
chain: DPDDESSKPCCDQCICTKSNPPQCRCRDARPNACHSACKSCACAPEPILACKCTDITDFCYEPCKPSE
notes: also called BBIt-TNF-T2
Tumor necrosis factor α [6]
  IC50: 50 to 250 µM

B10: BBIt-VEGF-V4-A13I-S25R-M27A-L29P-S31A-F50K-V52T (designed binder)
chain: DPDDESSKPCCDQCICTKSNPPQCRCRDARPNACHSACKSCACKHSAKAECKCTDITDFCYEPCKPSE
notes: also called BBIt-AV-V4
[1]
  IC50: 2 to 10 µM

B11: BBIt-VEGF-V1-A13I-S25R-M27A-L29P-S31A-F50K-V52T (designed binder)
chain: DPDDESSKPCCDQCICTKSNPPQCRCRDARPNACHSACKSCACSKHSQITCKCTDITDFCYEPCKPSE
notes: also called BBIt-AV-V1
Tumor necrosis factor α [8]
  IC50: > 250 µM
[7]
  IC50: 10 to 50 µM

B12: BBIt-VEGF-V3-A13I-S25R-M27A-L29P-S31A-F50K-V52T (designed binder)
chain: DPDDESSKPCCDQCICTKSNPPQCRCRDARPNACHSACKSCACRPTGHSLCKCTDITDFCYEPCKPSE
notes: also called BBIt-AV-V3
[7]
  IC50: 10 to 50 µM

B13: BBIt-VEGF-V2-A13I-S25R-M27A-L29P-S31A-F50K-V52T (designed binder)
chain: DPDDESSKPCCDQCICTKSNPPQCRCRDARPNACHSACKSCACKTNPSGSCKCTDITDFCYEPCKPSE
notes: also called BBIt-AV-V2
[1]
  IC50: 2 to 10 µM

B14: BBIt-VEGF-V6-A13I-S25R-M27A-L29P-S31A-F50K-V52T (designed binder)
chain: DPDDESSKPCCDQCICTKSNPPQCRCRDARPNACHSACKSCACPVTKRVHCKCTDITDFCYEPCKPSE
notes: also called BBIt-AV-V6
[1]
  IC50: 2 to 10 µM

B15: BBIt-AV-A13I-L29P-A40K-F50T-V52A (designed binder)
chain: DPDDESSKPCCDQCICTKSNPPQCRCSDMRPNSCHSACKSCKCYNLYGWTCTCADITDFCYEPCKPSE
notes: also called TA5; quintuple variant
[1]
  IC50: 2 to 10 µM

B16: WTQ-Q-BBIt-TGFβ1 (designed binder)
chain: DPDDESSKPCCDQCICTKSNPPQCRCSDMRPNSCHSACKSCACWTQHIHNCTCADITDFCYEPCKPSE
notes: also called BBIt-WTQ-Q-A13I-L29P-F50T-V52A
[2]
  IC50: 10 to 50 µM

B17: MM021W-Q-BBIt-TGFβ1 (designed binder)
chain: DPDDESSKPCCDQCICTKSNPPQCRCSDMRPNSCHSACKSCACKHNVDWLCTCADITDFCYEPCKPSE
notes: also called MM0212-Q-BBIt-TGF; BBIt-MM021W-Q-A13I-L29P-F50T-V52A
[2]
  IC50: 10 to 50 µM

B18: FGFps2-Q-BBIt-FGF-5 (designed binder)
chain: DPDDESSKPCCDQCICTKSNPPQCRCSDMRPNSCHSACKSCACTWIDSTPCTCADITDFCYEPCKPSE
notes: also called BBIt-FGFps2-Q-A13I-L29P-F50T-V52A
[9]
  IC50: > 250 µM
[10]
  IC50: 10 to 50 µM

B19: MM007-Q-BBIt-FGF-5 (designed binder)
chain: DPDDESSKPCCDQCICTKSNPPQCRCSDMRPNSCHSACKSCACRTQPYPLCTCADITDFCYEPCKPSE
notes: also called BBIt-MM007-Q-A13I-L29P-F50T-V52A
[10]
  IC50: 10 to 50 µM

B20: BBIt-AV-A13I-S25K-M27A-L29R-S31A-A40H-F50R-V52L (designed binder)
chain: DPDDESSKPCCDQCICTKSNPPQCRCKDARRNACHSACKSCHCYNLYGWTCRCLDITDFCYEPCKPSE
notes: the entry carries an N-terminal DP; also called RL8
[1]
  IC50: 2 to 10 µM

B21: BBIt-AV-A13I-S25R-M27A-L29P-S31A-A40H-F50K-V52T (designed binder)
chain: DPDDESSKPCCDQCICTKSNPPQCRCRDARPNACHSACKSCHCYNLYGWTCKCTDITDFCYEPCKPSE
notes: the entry carries an N-terminal DP; also called KT8
[1]
  IC50: 2 to 10 µM

B22: BBIt-AV-A13I-S25K-M27A-L29R-S31E-A40K-F50Q-V52Q (designed binder)
chain: DPDDESSKPCCDQCICTKSNPPQCRCKDARRNECHSACKSCKCYNLYGWTCQCQDITDFCYEPCKPSE
notes: the entry carries an N-terminal DP; also called QQ8
[1]
  IC50: 2 to 10 µM

B23: BBIt-AV-A13I-A40K-F50T-V52A (designed binder)
chain: DPDDESSKPCCDQCICTKSNPPQCRCSDMRLNSCHSACKSCKCYNLYGWTCTCADITDFCYEPCKPSE
notes: the entry as printed carries an N-terminal DP from the linker
[1]
  IC50: 2 to 10 µM

B24: BBdb-AV (designed binder)
chain: DPSESSKPCCDQCACTKSIPPQCRCTDVRLNSCHSACSSCACYNLYGWTCVCVDMKDFCYEPCK
notes: also called BBIdb-AV
[1]
  IC50: 2 to 10 µM
